Literature values as cited in publication PMC5874815.

Biological target: EGFR (Homo sapiens) (UniProt P00533)

With EGF (from UniProt P01133) as the substance, how does the Kd read?
The Kd was 2 nM.
